Data published in paper PMC8464079.

Tests used:
Test in all cases: fluorescence polarization
[1] = biological target: T1, MUT-4C (Caenorhabditis elegans, UniProt Q09487 172-535, N318C;H319Y;Q322R)
T1 sequence: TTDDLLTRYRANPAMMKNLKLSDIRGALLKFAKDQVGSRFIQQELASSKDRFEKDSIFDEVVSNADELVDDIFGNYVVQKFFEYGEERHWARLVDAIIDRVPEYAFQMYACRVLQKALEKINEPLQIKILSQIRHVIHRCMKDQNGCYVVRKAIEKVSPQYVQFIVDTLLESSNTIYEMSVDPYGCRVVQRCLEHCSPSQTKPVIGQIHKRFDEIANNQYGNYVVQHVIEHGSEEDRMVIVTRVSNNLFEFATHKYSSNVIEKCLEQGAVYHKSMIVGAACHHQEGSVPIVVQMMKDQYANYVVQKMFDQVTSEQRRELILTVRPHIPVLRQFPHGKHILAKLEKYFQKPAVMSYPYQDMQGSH

[2] = biological target: T2, MUT-8G (Caenorhabditis elegans, UniProt Q09487 172-535, N472S;Y473N;Q476E)
T2 sequence: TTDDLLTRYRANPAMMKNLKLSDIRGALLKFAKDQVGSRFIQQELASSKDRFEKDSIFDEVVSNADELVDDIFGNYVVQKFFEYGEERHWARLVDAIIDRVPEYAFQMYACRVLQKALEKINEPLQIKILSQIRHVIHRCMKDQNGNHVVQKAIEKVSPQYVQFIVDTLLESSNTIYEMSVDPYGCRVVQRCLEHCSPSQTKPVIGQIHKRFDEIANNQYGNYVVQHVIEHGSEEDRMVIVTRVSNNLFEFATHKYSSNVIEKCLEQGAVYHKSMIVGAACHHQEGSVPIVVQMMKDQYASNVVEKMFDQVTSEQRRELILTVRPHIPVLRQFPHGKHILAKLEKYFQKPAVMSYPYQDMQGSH

[3] = biological target: T3, MUT-4A (Caenorhabditis elegans, UniProt Q09487 172-535, N318C;H319R)
T3 sequence: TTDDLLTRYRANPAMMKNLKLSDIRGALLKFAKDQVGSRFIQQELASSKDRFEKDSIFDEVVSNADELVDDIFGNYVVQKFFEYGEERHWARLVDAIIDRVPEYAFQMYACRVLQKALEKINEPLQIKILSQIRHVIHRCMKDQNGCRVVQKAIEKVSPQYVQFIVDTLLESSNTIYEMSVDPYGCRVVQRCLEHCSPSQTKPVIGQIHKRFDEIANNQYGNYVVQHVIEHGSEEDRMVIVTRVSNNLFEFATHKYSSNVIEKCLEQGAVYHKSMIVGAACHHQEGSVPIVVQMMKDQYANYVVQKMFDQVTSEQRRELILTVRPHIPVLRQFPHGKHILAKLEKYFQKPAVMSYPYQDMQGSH

[4] = biological target: T4, PUF-8 WT (FP) (Caenorhabditis elegans, UniProt Q09487 172-535)
T4 sequence: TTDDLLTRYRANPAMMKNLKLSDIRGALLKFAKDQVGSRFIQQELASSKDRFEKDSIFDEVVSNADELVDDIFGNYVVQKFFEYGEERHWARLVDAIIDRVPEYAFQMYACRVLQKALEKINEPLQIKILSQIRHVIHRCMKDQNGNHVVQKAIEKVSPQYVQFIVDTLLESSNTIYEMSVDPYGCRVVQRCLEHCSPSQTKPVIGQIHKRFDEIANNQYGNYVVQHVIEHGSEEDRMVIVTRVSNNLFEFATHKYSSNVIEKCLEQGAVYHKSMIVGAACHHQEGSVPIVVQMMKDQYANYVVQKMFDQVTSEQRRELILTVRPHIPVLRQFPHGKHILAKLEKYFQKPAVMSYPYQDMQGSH

[5] = biological target: T5, MUT-4N (Caenorhabditis elegans, UniProt Q09487 172-535, N318A;H319A;Q322A)
T5 sequence: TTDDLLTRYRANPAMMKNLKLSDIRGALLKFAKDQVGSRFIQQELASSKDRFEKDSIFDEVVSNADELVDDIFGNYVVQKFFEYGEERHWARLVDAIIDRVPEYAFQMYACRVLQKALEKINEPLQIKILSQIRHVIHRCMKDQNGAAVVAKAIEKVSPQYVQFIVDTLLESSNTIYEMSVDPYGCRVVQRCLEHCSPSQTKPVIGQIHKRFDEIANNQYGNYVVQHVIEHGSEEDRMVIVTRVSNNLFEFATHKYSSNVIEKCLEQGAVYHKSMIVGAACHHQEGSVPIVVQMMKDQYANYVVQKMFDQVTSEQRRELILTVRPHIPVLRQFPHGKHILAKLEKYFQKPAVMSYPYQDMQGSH

[6] = biological target: T6, MUT-4G (Caenorhabditis elegans, UniProt Q09487 172-535, N318S;H319N;Q322E)
T6 sequence: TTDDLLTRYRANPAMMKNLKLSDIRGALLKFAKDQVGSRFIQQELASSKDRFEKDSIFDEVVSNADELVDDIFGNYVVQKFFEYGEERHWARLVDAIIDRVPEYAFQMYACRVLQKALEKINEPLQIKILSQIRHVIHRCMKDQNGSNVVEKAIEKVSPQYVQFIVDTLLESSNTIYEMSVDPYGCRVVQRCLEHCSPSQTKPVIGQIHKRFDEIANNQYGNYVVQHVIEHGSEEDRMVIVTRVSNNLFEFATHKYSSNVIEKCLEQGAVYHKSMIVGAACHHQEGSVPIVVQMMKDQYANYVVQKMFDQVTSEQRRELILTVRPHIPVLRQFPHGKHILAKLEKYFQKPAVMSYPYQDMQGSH

UGUAUAUA (ssRNA) [PBE-5U FAM]
Kd [1]: 3.72 ± 0.94 nM | binding result [2]: no binding | Kd [3]: 5.85 ± 1.64 nM | Kd [4]: 1.27 ± 1.16 nM | Kd [5]: 313 ± 58.2 nM | Kd [6]: 775 ± 276 nM

GGUACAUA (ssRNA) [PBE-1G FAM]
Kd [1]: 207 ± 23 nM | binding result [2]: no binding | Kd [3]: 159 ± 34.1 nM | Kd [4]: 128 ± 25.1 nM | binding result [5]: no binding | binding result [6]: no binding

UGUACAUA (ssRNA) [PBE-5C FAM]
Kd [1]: 2.91 ± 0.36 nM | binding result [2]: no binding | Kd [3]: 0.64 ± 0.2 nM | Kd [4]: 0.84 ± 1.08 nM | Kd [5]: 349 ± 83.2 nM | Kd [6]: 1350 ± 507 nM

AUACAUGU (ssRNA) [Control RNA FAM]
binding result [1]: no binding | binding result [2]: no binding | binding result [3]: no binding | binding result [5]: no binding | binding result [6]: no binding

UGUAGAUA (ssRNA) [PBE-5G FAM]
Kd [1]: 11.3 ± 3.43 nM | binding result [2]: no binding | Kd [3]: 9.99 ± 3.11 nM | Kd [4]: 12.8 ± 5.63 nM | Kd [5]: 180 ± 22.8 nM | Kd [6]: 29.8 ± 9.14 nM
